T1: human DSG-3 (human, UniProt P32926 50-615, limits assumed)
T1 construct: Soluble analyte (Octet) and plate coat (ELISA); also called hDSG-3
T1 sequence (looked up): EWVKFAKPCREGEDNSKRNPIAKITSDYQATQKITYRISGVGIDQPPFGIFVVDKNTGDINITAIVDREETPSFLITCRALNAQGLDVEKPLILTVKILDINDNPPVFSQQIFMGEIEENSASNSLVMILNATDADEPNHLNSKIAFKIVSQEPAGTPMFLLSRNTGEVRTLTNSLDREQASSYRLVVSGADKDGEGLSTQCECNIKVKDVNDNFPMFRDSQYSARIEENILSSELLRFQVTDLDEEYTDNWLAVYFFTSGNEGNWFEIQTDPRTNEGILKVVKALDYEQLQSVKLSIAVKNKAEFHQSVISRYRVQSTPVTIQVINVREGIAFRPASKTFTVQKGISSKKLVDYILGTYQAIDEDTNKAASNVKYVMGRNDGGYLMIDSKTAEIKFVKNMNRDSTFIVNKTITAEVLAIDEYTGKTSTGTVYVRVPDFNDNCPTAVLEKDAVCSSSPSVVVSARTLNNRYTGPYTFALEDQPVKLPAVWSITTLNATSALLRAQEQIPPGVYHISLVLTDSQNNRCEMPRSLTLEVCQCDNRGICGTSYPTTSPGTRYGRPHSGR

T2: human CD25 (human, UniProt P01589 22-213, limits assumed)
T2 construct: construct not described
T2 sequence (looked up): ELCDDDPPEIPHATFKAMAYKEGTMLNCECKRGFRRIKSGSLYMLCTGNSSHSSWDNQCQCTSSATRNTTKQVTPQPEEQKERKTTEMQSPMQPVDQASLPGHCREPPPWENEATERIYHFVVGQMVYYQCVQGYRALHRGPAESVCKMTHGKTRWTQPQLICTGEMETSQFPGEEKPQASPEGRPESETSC


Assays:
[1] = target: PD-1 on PD-1 reporter Jurkat cells (human, UniProt Q15116 25-288); experiment: cell-based or functional assay
Sequence of PD-1 on PD-1 reporter Jurkat cells (Q15116 25-288): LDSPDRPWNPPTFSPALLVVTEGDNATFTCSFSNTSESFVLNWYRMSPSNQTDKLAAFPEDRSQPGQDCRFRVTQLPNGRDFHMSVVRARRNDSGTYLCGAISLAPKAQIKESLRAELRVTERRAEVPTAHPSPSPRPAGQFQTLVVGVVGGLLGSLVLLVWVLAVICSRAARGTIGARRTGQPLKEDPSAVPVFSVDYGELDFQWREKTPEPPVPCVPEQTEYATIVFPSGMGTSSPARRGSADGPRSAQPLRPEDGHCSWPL

Insulin = target: T3, Insulin; experiment: ELISA, plate coated with insulin 5 ug/mL, test article at 100 nM, anti-human Fc-HRP detection
T3 construct: Plate coat in the polyreactivity ELISA

human PD-1 = target: T4, human PD-1 (human, UniProt Q15116 25-167); experiment: BLI (Octet), test article captured on anti-human Fc biosensors, human PD-1 as analyte, 1:1 global fit
T4 construct: Soluble analyte in the Octet assay
T4 sequence (Q15116 25-167 limits assumed): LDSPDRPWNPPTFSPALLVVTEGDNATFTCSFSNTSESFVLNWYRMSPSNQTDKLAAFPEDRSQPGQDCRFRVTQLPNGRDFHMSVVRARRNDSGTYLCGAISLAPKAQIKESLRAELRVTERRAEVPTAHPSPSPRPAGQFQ

human DSG-3 [2] = target: T1, human DSG-3; experiment: bridging ELISA, plate coated with hDSG-3, test article at 1 nM, then his-tagged hCD25 1 ug/mL, anti-His-HRP detection
human DSG-3 [3] = target: T1, human DSG-3; experiment: bridging ELISA, plate coated with hDSG-3, test article at 10 nM, then his-tagged hCD25 1 ug/mL, anti-His-HRP detection
human DSG-3 [4] = target: T1, human DSG-3; experiment: bridging ELISA, plate coated with hDSG-3, test article at 100 nM, then his-tagged hCD25 1 ug/mL, anti-His-HRP detection
human CD25 = target: T2, human CD25; experiment: BLI (Octet), test article captured on anti-human Fc biosensors, 1:1 global fit (method text names desmogleins as analyte; result told for human CD25)

| SHP-2 recruitment in PD-1 reporter Jurkat cells (test article on anti-human IgG coated plate), EC50 at 2 hours [1] | SHP-2 recruitment in PD-1 reporter Jurkat cells (test article on anti-human IgG coated plate), EC50 at 24 hours [1] | Insulin polyreactivity score (Insulin) | Kd (human PD-1) | absorbance (OD450 nm) (human DSG-3 [2]) | absorbance (OD450 nm) (human DSG-3 [3]) | absorbance (OD450 nm) (human DSG-3 [4]) | Kd (human CD25) | Binder |
| --- | --- | --- | --- | --- | --- | --- | --- | --- |
| 107 nM | 11.2 nM | 1.3 | 123 nM |  |  |  |  | PD1DSGAB1 (bispecific antibody, Anti-PD-1 agonist human IgG1 with an SD1 anti-desmoglein scFv at the C-terminus of each heavy chain (PD-1 ML-N format)) heavy: QVQLVQSGAEVKKPGASVKVSCKASGYSFTTYYMHWVRQAPGQGLEWMGIINPSGGSTSYAQKFQGRVTMTRDTSTSTVYMELSSLRSEDTAVYYCASGWVYWGQGTLVTVSSASTKGPSVFPLAPSSKSTSGGTAALGCLVKDYFPEPVTVSWNSGALTSGVHTFPAVLQSSGLYSLSSVVTVPSSSLGTQTYICNVNHKPSNTKVDKKVEPKSCDKTHTCPPCPAPEAAGAPSVFLFPPKPKDTLMISRTPEVTCVVVDVSHEDPEVKFNWYVDGVEVHNAKTKPREEQYNSTYRVVSVLTVLHQDWLNGKEYKCKVSNKALPAPIEKTISKAKGQPREPQVYTLPPSREEMTKNQVSLTCLVKGFYPSDIAVEWESNGQPENNYKTTPPVLDSDGSFFLYSKLTVDKSRWQQGNVFSCSVMHEALHNHYTQKSLSLSPGGGGGSGGGGSGGGGSQSVLTQPPSVSGTPGQRVTISCSGSSSHIGSNYVYWYQQLPGTAPKILIYSNDQRPAGVPDRFSASKSGTSASLAISGLRSEDEADYYCAAWDDGQGGVFGGGTKLTVLGGGGSGGGGSGGGGSGGGGSQVQLQESGPGPVKPSGTLSLTCGVSGGSISSNHWWTWVRQPPGKGLEWIGEIYHNGSTFLNPSLKSRVTISVDKSNNQFSLKLTSVTAADTAVYYCARGWHRTGFRGYPSHWYFDLWGRGTLVSVSS light: not shown |
|  |  | 1.7 | 328 nM |  |  |  |  | PD1DSGAB3 (bispecific antibody, human IgG1, kappa, Anti-PD-1 agonist human IgG1 with an SD3 anti-desmoglein scFv at the C-terminus of each heavy chain; copies: 2 + 2) heavy: QVQLVQSGAEVKKPGASVKVSCKASGYSFTTYYMHWVRQAPGQGLEWMGIINPSGGSTSYAQKFQGRVTMTRDTSTSTVYMELSSLRSEDTAVYYCASGWVYWGQGTLVTVSSASTKGPSVFPLAPSSKSTSGGTAALGCLVKDYFPEPVTVSWNSGALTSGVHTFPAVLQSSGLYSLSSVVTVPSSSLGTQTYICNVNHKPSNTKVDKKVEPKSCDKTHTCPPCPAPEAAGAPSVFLFPPKPKDTLMISRTPEVTCVVVDVSHEDPEVKFNWYVDGVEVHNAKTKPREEQYNSTYRVVSVLTVLHQDWLNGKEYKCKVSNKALPAPIEKTISKAKGQPREPQVYTLPPSREEMTKNQVSLTCLVKGFYPSDIAVEWESNGQPENNYKTTPPVLDSDGSFFLYSKLTVDKSRWQQGNVFSCSVMHEALHNHYTQKSLSLSPGGGGGSGGGGSGGGGSELQMTQSPSSLSASVGDRVTITCQASQDIGNYLNWYQQKPGKAPKLLIYDASYLETGVPSRFSGSGSGTDFTFTISSLQPEDIATYYCQQYDNLPFTFGPGTKVDIKGGGGSGGGGSGGGGSGGGGSEVQLVESGGGLVQPGRSLRLSCAASGFTFDDYAMHWVRQAPGKGLEWVSGISWNSGSIDYADSVKGRFTISRDNAKNSLYLQMNSLRVEDTALYYCAKDGSRVFGVGGGFDFWGQGTMVTVSS light: not shown |
|  |  | 2.9 |  | 0.508 | 0.628 | 0.756 |  | IL2DSGAB3 (other, SD3 anti-desmoglein human IgG1 with the IL-2 mutein fused to the C-terminus of the heavy chain; copies: 2 + 2) heavy: EVQLVESGGGLVQPGRSLRLSCAASGFTFDDYAMHWVRQAPGKGLEWVSGISWNSGSIDYADSVKGRFTISRDNAKNSLYLQMNSLRVEDTALYYCAKDGSRVFGVGGGFDFWGQGTMVTVSSASTKGPSVFPLAPSSKSTSGGTAALGCLVKDYFPEPVTVSWNSGALTSGVHTFPAVLQSSGLYSLSSVVTVPSSSLGTQTYICNVNHKPSNTKVDKKVEPKSCDKTHTCPPCPAPEAAGAPSVFLFPPKPKDTLMISRTPEVTCVVVDVSHEDPEVKFNWYVDGVEVHNAKTKPREEQYNSTYRVVSVLTVLHQDWLNGKEYKCKVSNKALPAPIEKTISKAKGQPREPQVYTLPPSREEMTKNQVSLTCLVKGFYPSDIAVEWESNGQPENNYKTTPPVLDSDGSFFLYSKLTVDKSRWQQGNVFSCSVMHEALHNHYTQKSLSLSPGGGGGSAPTSSSTKKTQLQLEHLLLDLQMILNGINNYKNPKLTRMLTFKFYMPKKATELKHLQCLEEELKPLEEALNLAPSKNFHLRPRDLISDINVIVLELKGSETTFMCEYADETATIVEFINRWITFSQSIISTLT light: not shown |
|  |  |  | 243 nM |  |  |  |  | PD1DSGAB4 (bispecific antibody, human IgG1, kappa, Anti-PD-1 agonist human IgG1 with an SD4 anti-desmoglein scFv at the C-terminus of each heavy chain; copies: 2 + 2) heavy: QVQLVQSGAEVKKPGASVKVSCKASGYSFTTYYMHWVRQAPGQGLEWMGIINPSGGSTSYAQKFQGRVTMTRDTSTSTVYMELSSLRSEDTAVYYCASGWVYWGQGTLVTVSSASTKGPSVFPLAPSSKSTSGGTAALGCLVKDYFPEPVTVSWNSGALTSGVHTFPAVLQSSGLYSLSSVVTVPSSSLGTQTYICNVNHKPSNTKVDKKVEPKSCDKTHTCPPCPAPEAAGAPSVFLFPPKPKDTLMISRTPEVTCVVVDVSHEDPEVKFNWYVDGVEVHNAKTKPREEQYNSTYRVVSVLTVLHQDWLNGKEYKCKVSNKALPAPIEKTISKAKGQPREPQVYTLPPSREEMTKNQVSLTCLVKGFYPSDIAVEWESNGQPENNYKTTPPVLDSDGSFFLYSKLTVDKSRWQQGNVFSCSVMHEALHNHYTQKSLSLSPGGGGGSGGGGSGGGGSELVLTQPPSVPVAPGQTANISCGGNNIGRQTVHWYQQKPGQAPVLVVFDDSDRPAGIPERFSGSNSGNTATLTISRVEAGDEADYYCQVWDSSSDHVVFGGGTQLTVLGGGGSGGGGSGGGGSGGGGSQVQLVQSGGGVVQSGRSLRLSCAASGFTFSDYAMHWVRQAPGKGLEWVAVISHGGTKKYTGDSVKGRFIISRDNSKNTVFLQMNSLRVEDTAVYYCARDRVEGYVWGGTFDHWGQGTPVTVSS light: not shown |
|  |  | 3.1 |  | 0.194 | 0.545 | 1.16 |  | IL2DSGAB4 (other, SD4 anti-desmoglein human IgG1 with the IL-2 mutein fused to the C-terminus of the heavy chain; copies: 2 + 2) heavy: QVQLVQSGGGVVQSGRSLRLSCAASGFTFSDYAMHWVRQAPGKGLEWVAVISHGGTKKYTGDSVKGRFIISRDNSKNTVFLQMNSLRVEDTAVYYCARDRVEGYVWGGTFDHWGQGTPVTVSSASTKGPSVFPLAPSSKSTSGGTAALGCLVKDYFPEPVTVSWNSGALTSGVHTFPAVLQSSGLYSLSSVVTVPSSSLGTQTYICNVNHKPSNTKVDKKVEPKSCDKTHTCPPCPAPEAAGAPSVFLFPPKPKDTLMISRTPEVTCVVVDVSHEDPEVKFNWYVDGVEVHNAKTKPREEQYNSTYRVVSVLTVLHQDWLNGKEYKCKVSNKALPAPIEKTISKAKGQPREPQVYTLPPSREEMTKNQVSLTCLVKGFYPSDIAVEWESNGQPENNYKTTPPVLDSDGSFFLYSKLTVDKSRWQQGNVFSCSVMHEALHNHYTQKSLSLSPGGGGGSAPTSSSTKKTQLQLEHLLLDLQMILNGINNYKNPKLTRMLTFKFYMPKKATELKHLQCLEEELKPLEEALNLAPSKNFHLRPRDLISDINVIVLELKGSETTFMCEYADETATIVEFINRWITFSQSIISTLT light: ELVLTQPPSVPVAPGQTANISCGGNNIGRQTVHWYQQKPGQAPVLVVFDDSDRPAGIPERFSGSNSGNTATLTISRVEAGDEADYYCQVWDSSSDHVVFGGGTQLTVLGQPKAAPSVTLFPPSSEELQANKATLVCLISDFYPGAVTVAWKADSSPVKAGVETTTPSKQSNNKYAASSYLSLTPEQWKSHRSYSCQVTHEGSTVEKTVAPTECS |
|  |  |  |  | 0.36 | 0.55 | 1.2 | 3.5 nM | IL2DSGAB7 (other, also called TL2DSGAB7) heavy: EVQLVESGGGLVQPGRSLRLSCAASGFTFDDYAMHWVRQAPGKGLEWVSGISWNSGSIDYADSVKGRFTISRDNAKNSLYLQMNSLRVEDTALYYCAKDGSRVFGVGGGFDFWGQGTMVTVSSASTKGPSVFPLAPSSKSTSGGTAALGCLVKDYFPEPVTVSWNSGALTSGVHTFPAVLQSSGLYSLSSVVTVPSSSLGTQTYICNVNHKPSNTKVDKKVEPKSCDKTHTCPPCPAPEAAGAPSVFLFPPKPKDTLMISRTPEVTCVVVDVSHEDPEVKFNWYVDGVEVHNAKTKPREEQYNSTYRVVSVLTVLHQDWLNGKEYKCKVSNKALPAPIEKTISKAKGQPREPQVYTLPPSREEMTKNQVSLTCLVKGFYPSDIAVEWESNGQPENNYKTTPPVLDSDGSFFLYSKLTVDKSRWQQGNVFSCSVMHEALHNHYTQKSLSLSPG light: not shown |

Source: patent US20240262905A1 (PANDION OPERATIONS, published 2024)
